Test [1] deals with T1, VIP (Vasoactive Intestinal Peptide) (human).
T1 construct: also called human VIP
T1 peptide: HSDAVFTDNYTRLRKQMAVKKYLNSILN
As to the kind of experiment: SPR (ProteOn XPR36), antibody amine-coupled, peptide analyte, 1:1 Langmuir fit.

For test [2], the target named is T2, PACAP38 (Pituitary Adenylate Cyclase-Activating Polypeptide, 38 amino acids) (human, not fully specified; the C-terminal lysine is amidated).
T2 peptide: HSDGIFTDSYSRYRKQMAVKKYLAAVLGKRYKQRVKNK
The experiment in a line: cell-based or functional assay.

Test [3] deals with T2, PACAP38 (Pituitary Adenylate …). As to the kind of experiment: cell surface binding assay (DELFIA TRF): antibody pre-incubated with PACAP38, added to PAC1-R-expressing PC-12 cells, detected with Eu anti-human IgG; the antibody is held on the cells through cell-bound PACAP38. The method, then: Cells were initially seeded at 1×10⁵ cells/well in a solution of complete RPMI (“cRPMI”: RPMI medium supplemented with 10% sterile heat-inactivated FBS and 1% sterile antibiotic/antimycotic)+10% FBS, and the plates were allowed to incubate overnight at 37° C. On the day of the binding assay, antibodies at an initial concentration of 15 μg/ml were diluted at a 1:3 ratio in DELFIA® binding buffer (50 mM Tris, 150 mM NaCl, 0.1% azide, 2% horse serum) (Perkin-Elmer, Waltham, MA) to a total volume of 60 μL in a separate 96 well round bottom plate. PACAP38 was prepared for the binding assay by diluting it in DELFIA® binding buffer to a concentration of 200 nM, and then 60 μl of the diluted PACAP38 was added to each of the antibody-containing wells to form antibody: antigen complexes. Following addition of PACAP38, the antibody: antigen complexes were incubated at room temperature on a shaker for 1 hour. […]
DELFIA® Europium labeled anti-human IgG detection reagent (Cat #1244-330, Perkin-Elmer, Waltham, MA) was diluted to a concentration of 300 ng/ml in DELFIA® Binding Buffer. […] The plates were then read (TRF, excitation 330 nm, emission 620 nm) on a SPECTRAMAX® (Molecular Devices, Sunnyvale, CA) plate reader.

Test [4] has as its target T3, PACAP27 (Pituitary Adenylate Cyclase-Activating Polypeptide, 27 amino acids) (human, the C-terminal leucine is amidated).
T3 construct: also called human PACAP27
T3 peptide: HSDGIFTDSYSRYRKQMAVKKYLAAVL
The experiment in a line: SPR (ProteOn XPR36), antibody amine-coupled, peptide analyte, 1:1 Langmuir fit. The method, then: (§1) Binding affinities of monoclonal antibodies for human PACAP were estimated using SPR on the PROTEON™ XPR36 (Bio-Rad, Hercules, CA). Antibody was immobilized to the surface of general amine coupling (“GLC″ or “GLM”) Chips (Bio-Rad, Hercules, CA). […] Antigen (ranging from 1.23 nM to 100 nM) was typically run sequentially with association times of 2-4 minutes and dissociation times of 3-120 minutes grouped with the PROTEON™ Manager Software (v3.1.0.6 (Bio-Rad, Hercules, CA)) and fitted using a 1:1 Langmuir binding model. Surfaces were regenerated between analyte queries using 0.85% Phosphoric Acid, 0.5% SDS, and 0.1N NaOH.

Test [5] concerns the target T2, PACAP38 (Pituitary Adenylate …). The description is as above. The method, then: as §1
Test [6] deals with T3, PACAP27 (Pituitary Adenylate …). As to the kind of experiment: cell-based or functional assay.
Test [7] addresses T2, PACAP38 (Pituitary Adenylate …). As to the kind of experiment: cell-based or functional assay.
For test [8] the target is unchanged. As to the kind of experiment: cell-based or functional assay.
Test [9] deals with T3, PACAP27 (Pituitary Adenylate …). The experiment in a line: competition HTRF binding assay: unlabeled PACAP27 at 10x against biotinylated PACAP38 (35 nM). The method, then: In parallel, 10 μl of an antibody dilution series (highest final concentration of 100 nM) were incubated with 10 μl of N-terminal or C-terminal biotinylated PACAP38 (35 nM final) alone, or in combination with either PACAP27 (350 nM final) or VIP (350 nM final), i.e., 10× PACAP27 or 10× VIP, respectively, in a HTRF plate. 20 μl of Eu³⁺ cryptate labeled anti-hu Fc donor and 20 μl of d2-labeled streptavidin acceptor were added to each well and incubated for 1 hour at room temperature. Fluorescence was measured at 620 and 665 nm with a delay of 300 usec.
A general note: TR-FRET usually uses a lanthanide donor and a delayed reading to cut background.

For test [10], the target named is T4, PAC1-R on PAC1-R-expressing PC-12 cells (UniProt P32215 20-523).
T4 construct: whole, on cells; also called PAC1 receptor
T4 sequence (looked up): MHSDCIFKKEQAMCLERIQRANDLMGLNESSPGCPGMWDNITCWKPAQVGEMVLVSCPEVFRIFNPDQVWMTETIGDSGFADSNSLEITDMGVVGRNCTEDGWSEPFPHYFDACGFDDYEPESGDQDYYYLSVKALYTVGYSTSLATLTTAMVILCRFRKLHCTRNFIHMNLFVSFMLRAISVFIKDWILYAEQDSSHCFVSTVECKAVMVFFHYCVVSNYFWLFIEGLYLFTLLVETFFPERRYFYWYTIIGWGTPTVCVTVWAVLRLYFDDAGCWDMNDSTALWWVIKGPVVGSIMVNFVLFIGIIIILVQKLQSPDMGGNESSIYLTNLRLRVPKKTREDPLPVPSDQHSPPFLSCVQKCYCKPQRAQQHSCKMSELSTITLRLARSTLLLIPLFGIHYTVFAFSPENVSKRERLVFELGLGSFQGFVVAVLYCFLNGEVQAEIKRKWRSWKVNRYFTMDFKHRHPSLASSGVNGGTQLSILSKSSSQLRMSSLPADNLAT
The experiment in a line: cell surface binding assay (DELFIA TRF): antibody pre-incubated with PACAP38, added to PAC1-R-expressing PC-12 cells, detected with Eu anti-human IgG. As to the method: Cells were initially seeded at 1×10⁵ cells/well in a solution of complete RPMI (“cRPMI”: RPMI medium supplemented with 10% sterile heat-inactivated FBS and 1% sterile antibiotic/antimycotic)+10% FBS, and the plates were allowed to incubate overnight at 37° C. On the day of the binding assay, antibodies at an initial concentration of 15 μg/ml were diluted at a 1:3 ratio in DELFIA® binding buffer (50 mM Tris, 150 mM NaCl, 0.1% azide, 2% horse serum) (Perkin-Elmer, Waltham, MA) to a total volume of 60 μL in a separate 96 well round bottom plate. PACAP38 was prepared for the binding assay by diluting it in DELFIA® binding buffer to a concentration of 200 nM, and then 60 μl of the diluted PACAP38 was added to each of the antibody-containing wells to form antibody: antigen complexes. Following addition of PACAP38, the antibody: antigen complexes were incubated at room temperature on a shaker for 1 hour. Separately, the PC-12 cells were prepared for addition of antibody: antigen complexes by washing the cells two times with DELFIA® wash buffer (50 mM Tris, 150 mM NaCl, 0.1% Azide) (Perkin-Elmer, Waltham, MA). After washing the cells two times and following the 1 hour room temperature incubation of the antibody: antigen complexes, 50 μl of the antibody: antigen complex was added to each well containing cells. The mixtures of cells and antibody: antigen complexes were then incubated for 30 minutes at room temperature. Following this 30 minute incubation, each mixture was washed two times with DELFIA® wash buffer (Perkin-Elmer, Waltham, MA).
DELFIA® Europium labeled anti-human IgG detection reagent (Cat #1244-330, Perkin-Elmer, Waltham, MA) was diluted to a concentration of 300 ng/ml in DELFIA® Binding Buffer. Following dilution, 50 μl of the anti-human IgG detection reagent was added to each well containing cells, and a 30 minute incubation at room temperature followed this addition of IgG detection reagent. After completion of the 30 minute room temperature incubation, the cells were then washed two times with DELFIA® wash buffer. Next, 50 μl of DELFIA® Enhancement Solution (Cat #1244-105, Perkin-Elmer, Waltham, MA) was added to each well containing cells for a final 15 minute room temperature incubation with shaking. The plates were then read (TRF, excitation 330 nm, emission 620 nm) on a SPECTRAMAX® (Molecular Devices, Sunnyvale, CA) plate reader.

This note sets out measurements from patent US20250009876A1 (H LUNDBECK A S, published 2025).

One may read the Kd as the free concentration of one partner at which half of the binding sites on the other are occupied at equilibrium, for simple one-to-one binding. Higher therefore signals lower affinity. What is called koff is the first-order rate constant of dissociation. A higher koff goes with a short-lived complex. As a reminder, the kon is the rate constant with which the complex forms. A high value points to fast association. For orientation: EC50 (read off the curve) means the concentration needed to bring the measured effect to its halfway point. Lower therefore signals greater potency.

B1: Ab21.H2 (antibody, human IgG1, kappa, N297A)
heavy: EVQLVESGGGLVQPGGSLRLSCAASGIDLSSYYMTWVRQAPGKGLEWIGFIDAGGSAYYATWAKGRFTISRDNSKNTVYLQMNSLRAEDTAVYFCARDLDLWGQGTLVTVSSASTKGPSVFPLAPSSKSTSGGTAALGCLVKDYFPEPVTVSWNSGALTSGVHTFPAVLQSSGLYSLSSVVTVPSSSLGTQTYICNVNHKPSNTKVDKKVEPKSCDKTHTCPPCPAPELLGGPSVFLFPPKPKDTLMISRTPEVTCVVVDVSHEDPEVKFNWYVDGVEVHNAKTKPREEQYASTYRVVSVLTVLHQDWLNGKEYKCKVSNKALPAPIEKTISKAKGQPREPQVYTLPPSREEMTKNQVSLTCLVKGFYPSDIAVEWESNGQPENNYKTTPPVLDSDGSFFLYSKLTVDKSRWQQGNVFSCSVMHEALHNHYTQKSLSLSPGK
light: AVLTQSPSTLSASVGDRVTITCKSSESVYGDYLAWFQQKPGKAPKQLIYDASTLASGVPSRFSGSGSGTEFTLTISSLQPDDFATYYCAGGYVSAGVAFGGGTKVEIKRTVAAPSVFIFPPSDEQLKSGTASVVCLLNNFYPREAKVQWKVDNALQSGNSQESVTEQDSKDSTYSLSSTLTLSKADYEKHKVYACEVTHQGLSSPVTKSFNRGEC
notes: Full-length humanized variant of Ab21
In test [1], B1 had a dissociation constant Kd of 225 nM, a koff of 0.011 s⁻¹ and a kon of 48800 M⁻¹ s⁻¹. Further, the “Inhibition of 1 nM PACAP38-induced human VPAC2-R mediated cAMP increase IC50 (pM)” value in [2] is 1060 pM. Also, in [3], the 50% effective concentration (EC50 (read off the curve)) was around 7 nM. In addition, in test [4], the Kd was at most 0.0233 nM, the koff was at most 1e-05 s⁻¹ and the kon is 430000 M⁻¹ s⁻¹. For the same molecule, in test [5], the dissociation constant (Kd) was at most 0.0171 nM, the off-rate (koff) is at most 1e-05 s⁻¹ and the kon was 586000 M⁻¹ s⁻¹. The “Inhibition of 1 nM PACAP27-induced PAC1-R mediated cAMP increase IC50 (pM)” value in test [6] worked out at 274 pM. Moreover, the “Inhibition of 0.1 nM PACAP38-induced PAC1-R mediated cAMP increase IC50 (pM)” value in test [7] was 28.5 pM. In addition, in test [8], the “Inhibition of 5 nM PACAP38-induced human VPAC1-R mediated cAMP increase IC50 (pM)” value was 2480 pM.

B2: Ab22 (antibody, human IgG1, kappa, N297A, V domains shown)
VH: QEQLVESGGGLVQPEGSLTLTCTASGFDFSSNAMCWVRQAPGKGLEWIGSIYNADGKNYYAIWAKGRFTISRTSSTTVTLQMTSLTAADTATYFCARDFDLWGQGTLVTVSS
VL: AAVLTQTPSPVSAAVGGTVTINCQSSQSVYDNDWLAWFQQKPGQPPKLLIYLTSTLASGVPSRFSGSGSGTQFTLTISGVQCDDAATYYCLGGYDEDGDTHVFGGGTEVVVKR
notes: Full-length anti-PACAP antibody; rabbit/human chimeric
As for B2, the binding result in test [9] was “no binding”; in test [10] it was “no binding (tested: about 70 nM)”.
